Measurements taken from patent publication EP4740966A1.
Several values for one entry are separate records, joined by “and”; a condition that tells them apart may be missing. Equal values may be shown once. Read-outs that look alike come from different tables or passages of the source. Blank lines part the entries; values can stand above or below the substance they belong to.

Columns and labels:
Test in all cases: co-expression of chains A and B 1:1 in HEK293, Protein A, non-reduced SDS-PAGE band intensity
[1] = biological target: Human IgG1-Fc, chain B with D356C+T366S+L368A+Y407V (human) [IgG part: P0DOX5]
[2] = biological target: Human IgG1-Fc, chain B with D356C+T366S+L368A+Y407V (human) [IgG part: P0DOX5]; remark: listed apart in the source
[3] = biological target: Human IgG1-Fc, chain B with D356C+T366S+L368A+Y407V+F405K (human) [IgG part: P0DOX5]
[4] = biological target: Human IgG1-Fc, chain B with D356C+T366S+L368A+Y407V+F405K (human) [IgG part: P0DOX5]; remark: listed apart in the source
[5] = biological target: Human IgG1-Fc, chain B with D356C+T366S+L368A+Y407V+F405K+K360E+Q347E (human) [IgG part: P0DOX5]
[6] = biological target: Human IgG1-Fc, chain B with D356C+T366S+L368A+Y407V+F405K+Q347R (human) [IgG part: P0DOX5]
[7] = biological target: Human IgG1-Fc, chain B with D356C+T366S+L368A+Y407V+K360E+Q347E (human) [IgG part: P0DOX5]
[8] = biological target: Human IgG1-Fc, chain B with D356C+T366S+L368A+Y407V+Q347R (human) [IgG part: P0DOX5]
[9] = biological target: ScFv-Fc fusion protein (anti-Her2 single chain antibody-Fc), chain A with Y349C+T366W
[10] = biological target: ScFv-Fc fusion protein, chain A with T366W+F405K
[11] = biological target: ScFv-Fc fusion protein, chain A with T366W+F405K+D399S
[12] = biological target: ScFv-Fc fusion protein, chain A with T366W+F405K+Y349D+S354D
[13] = biological target: ScFv-Fc fusion protein, chain A with T366W+K409A
[14] = biological target: ScFv-Fc fusion protein, chain A with T366W+K409A+K392D
[15] = biological target: ScFv-Fc fusion protein, chain A with T366W+K409A+Y349D
[16] = biological target: ScFv-Fc fusion protein, chain A with T366W+K409A+Y349D+S354D
[17] = biological target: ScFv-Fc fusion protein, chain A with Y349C+T366W+F405K
[18] = biological target: ScFv-Fc fusion protein, chain A with Y349C+T366W+F405K; remark: listed apart in the source
[19] = biological target: ScFv-Fc fusion protein, chain A with Y349C+T366W+F405K; remark: listed apart in the source
[20] = biological target: ScFv-Fc fusion protein, chain A with Y349C+T366W+F405K+K360E+Q347E
[21] = biological target: ScFv-Fc fusion protein, chain A with Y349C+T366W+F405K+Q347R
[22] = biological target: ScFv-Fc fusion protein, chain A with Y349C+T366W+K409A
[23] = biological target: ScFv-Fc fusion protein, chain A with Y349C+T366W+K409A; remark: listed apart in the source
[24] = biological target: ScFv-Fc fusion protein, chain A with Y349C+T366W+K409A; remark: listed apart in the source
[25] = biological target: ScFv-Fc fusion protein, chain A with Y349C+T366W+K409A+K360E+Q347E
[26] = biological target: ScFv-Fc fusion protein, chain A with Y349C+T366W+K409A+Q347R
[27] = biological target: ScFv-Fc fusion protein, chain A with Y349C+T366W+K409E
[28] = biological target: VhH-Fc fusion protein (camel single domain antibody variable region-Fc), chain B with D356C+T366S+L368A+Y407V+F405K
[29] = biological target: VhH-Fc fusion protein, chain B with D356C+T366S+L368A+Y407V
[30] = biological target: VhH-Fc fusion protein, chain B with T366S+L368A+Y407V+D399S+F405K
[31] = biological target: VhH-Fc fusion protein, chain B with T366S+L368A+Y407V+K409A+E357A
[32] = biological target: VhH-Fc fusion protein, chain B with T366S+L368A+Y407V+K409A+K392D
[33] = biological target: VhH-Fc fusion protein, chain B with T366S+L368G+Y407A+K409A

ScFv-Fc fusion protein, chain A with Y349C+T366W+K409A, sequence (chain): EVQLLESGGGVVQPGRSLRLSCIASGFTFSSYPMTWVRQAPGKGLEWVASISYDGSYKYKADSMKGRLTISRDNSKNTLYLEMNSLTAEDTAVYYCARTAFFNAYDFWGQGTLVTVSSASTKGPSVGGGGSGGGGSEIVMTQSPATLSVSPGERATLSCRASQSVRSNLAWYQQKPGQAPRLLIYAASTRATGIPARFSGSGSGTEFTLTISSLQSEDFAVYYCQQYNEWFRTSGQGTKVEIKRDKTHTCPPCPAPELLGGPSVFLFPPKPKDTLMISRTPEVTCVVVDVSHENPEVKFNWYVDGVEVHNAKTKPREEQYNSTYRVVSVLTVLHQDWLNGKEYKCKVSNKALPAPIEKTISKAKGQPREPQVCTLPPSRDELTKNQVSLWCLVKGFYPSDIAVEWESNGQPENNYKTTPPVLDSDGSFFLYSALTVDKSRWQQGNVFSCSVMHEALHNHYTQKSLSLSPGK
ScFv-Fc fusion protein, chain A with Y349C+T366W+F405K, sequence (chain): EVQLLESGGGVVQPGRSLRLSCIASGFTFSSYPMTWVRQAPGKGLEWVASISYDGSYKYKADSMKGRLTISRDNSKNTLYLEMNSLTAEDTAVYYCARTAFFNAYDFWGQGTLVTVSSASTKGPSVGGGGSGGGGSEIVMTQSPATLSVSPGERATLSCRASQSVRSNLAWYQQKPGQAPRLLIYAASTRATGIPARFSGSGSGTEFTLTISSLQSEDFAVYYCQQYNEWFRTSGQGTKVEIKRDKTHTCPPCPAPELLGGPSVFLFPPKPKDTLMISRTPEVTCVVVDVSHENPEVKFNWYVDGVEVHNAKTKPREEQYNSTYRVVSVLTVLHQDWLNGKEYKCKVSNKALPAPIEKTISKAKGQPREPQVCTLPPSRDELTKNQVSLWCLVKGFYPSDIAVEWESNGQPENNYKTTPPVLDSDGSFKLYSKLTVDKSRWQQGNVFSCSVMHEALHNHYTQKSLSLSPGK
ScFv-Fc fusion protein (anti-Her2 single chain antibody-Fc), chain A with Y349C+T366W, sequence (chain): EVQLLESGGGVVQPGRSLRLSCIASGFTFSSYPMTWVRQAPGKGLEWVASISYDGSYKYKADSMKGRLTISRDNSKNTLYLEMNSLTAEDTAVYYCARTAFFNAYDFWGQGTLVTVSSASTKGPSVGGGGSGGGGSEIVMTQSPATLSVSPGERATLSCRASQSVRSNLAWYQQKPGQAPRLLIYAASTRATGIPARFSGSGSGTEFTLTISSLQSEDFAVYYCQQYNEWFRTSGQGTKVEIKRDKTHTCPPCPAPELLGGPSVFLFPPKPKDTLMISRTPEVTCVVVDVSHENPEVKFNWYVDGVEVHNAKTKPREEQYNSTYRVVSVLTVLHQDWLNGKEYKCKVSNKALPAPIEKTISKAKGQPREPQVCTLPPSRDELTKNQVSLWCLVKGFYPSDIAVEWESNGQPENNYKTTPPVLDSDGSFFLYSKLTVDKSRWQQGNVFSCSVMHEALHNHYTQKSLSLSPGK
ScFv-Fc fusion protein, chain A with Y349C+T366W+K409E, sequence (chain): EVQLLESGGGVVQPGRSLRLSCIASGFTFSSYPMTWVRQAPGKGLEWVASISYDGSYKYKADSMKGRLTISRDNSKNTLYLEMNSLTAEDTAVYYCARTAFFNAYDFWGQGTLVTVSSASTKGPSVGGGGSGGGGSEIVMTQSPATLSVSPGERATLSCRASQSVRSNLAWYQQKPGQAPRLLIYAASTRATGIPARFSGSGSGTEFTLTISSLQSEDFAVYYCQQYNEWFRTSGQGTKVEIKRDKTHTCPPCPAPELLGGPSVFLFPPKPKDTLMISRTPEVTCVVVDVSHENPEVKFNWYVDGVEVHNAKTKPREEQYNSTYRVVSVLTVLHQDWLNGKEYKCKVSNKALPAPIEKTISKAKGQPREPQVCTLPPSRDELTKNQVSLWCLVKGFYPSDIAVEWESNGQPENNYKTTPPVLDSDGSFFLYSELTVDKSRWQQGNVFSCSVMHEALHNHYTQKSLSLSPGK
ScFv-Fc fusion protein, chain A with Y349C+T366W+K409A+K360E+Q347E, sequence (chain): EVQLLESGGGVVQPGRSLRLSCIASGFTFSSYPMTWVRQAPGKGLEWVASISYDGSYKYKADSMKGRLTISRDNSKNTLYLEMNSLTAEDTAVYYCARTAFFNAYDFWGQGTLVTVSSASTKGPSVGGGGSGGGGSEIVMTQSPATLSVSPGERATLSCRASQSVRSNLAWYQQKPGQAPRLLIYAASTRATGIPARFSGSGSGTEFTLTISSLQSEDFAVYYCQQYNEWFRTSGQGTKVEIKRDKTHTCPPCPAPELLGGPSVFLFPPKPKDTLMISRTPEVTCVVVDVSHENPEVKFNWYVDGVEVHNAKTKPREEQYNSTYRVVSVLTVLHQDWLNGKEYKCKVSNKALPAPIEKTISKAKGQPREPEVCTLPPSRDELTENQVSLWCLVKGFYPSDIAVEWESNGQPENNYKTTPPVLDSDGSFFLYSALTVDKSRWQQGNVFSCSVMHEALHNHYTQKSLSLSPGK
ScFv-Fc fusion protein, chain A with Y349C+T366W+F405K+Q347R, sequence (chain): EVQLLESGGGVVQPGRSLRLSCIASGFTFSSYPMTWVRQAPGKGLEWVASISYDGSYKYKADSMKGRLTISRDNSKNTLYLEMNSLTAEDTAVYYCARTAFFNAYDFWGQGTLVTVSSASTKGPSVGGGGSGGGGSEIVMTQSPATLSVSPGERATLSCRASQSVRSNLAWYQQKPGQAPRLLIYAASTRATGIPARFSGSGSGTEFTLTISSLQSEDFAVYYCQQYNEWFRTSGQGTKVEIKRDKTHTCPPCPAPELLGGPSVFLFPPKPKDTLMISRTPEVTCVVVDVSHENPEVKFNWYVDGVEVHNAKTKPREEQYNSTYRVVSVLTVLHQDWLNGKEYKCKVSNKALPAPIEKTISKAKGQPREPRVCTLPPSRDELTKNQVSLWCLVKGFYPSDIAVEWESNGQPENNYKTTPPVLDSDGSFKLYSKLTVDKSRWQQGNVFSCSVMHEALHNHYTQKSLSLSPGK
ScFv-Fc fusion protein, chain A with T366W+K409A, sequence (chain): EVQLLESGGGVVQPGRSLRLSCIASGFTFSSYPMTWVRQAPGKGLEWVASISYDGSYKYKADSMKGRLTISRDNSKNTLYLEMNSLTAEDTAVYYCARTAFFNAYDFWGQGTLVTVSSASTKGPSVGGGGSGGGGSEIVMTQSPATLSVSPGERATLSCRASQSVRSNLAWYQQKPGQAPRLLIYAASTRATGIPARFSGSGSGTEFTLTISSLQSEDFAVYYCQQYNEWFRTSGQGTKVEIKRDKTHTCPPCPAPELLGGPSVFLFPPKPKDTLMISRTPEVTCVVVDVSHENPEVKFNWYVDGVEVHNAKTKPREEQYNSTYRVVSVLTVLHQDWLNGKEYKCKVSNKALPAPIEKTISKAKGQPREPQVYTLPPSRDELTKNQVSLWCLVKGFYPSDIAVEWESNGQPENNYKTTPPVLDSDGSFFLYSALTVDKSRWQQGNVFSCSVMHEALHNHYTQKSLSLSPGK
ScFv-Fc fusion protein, chain A with T366W+F405K+Y349D+S354D, sequence (chain): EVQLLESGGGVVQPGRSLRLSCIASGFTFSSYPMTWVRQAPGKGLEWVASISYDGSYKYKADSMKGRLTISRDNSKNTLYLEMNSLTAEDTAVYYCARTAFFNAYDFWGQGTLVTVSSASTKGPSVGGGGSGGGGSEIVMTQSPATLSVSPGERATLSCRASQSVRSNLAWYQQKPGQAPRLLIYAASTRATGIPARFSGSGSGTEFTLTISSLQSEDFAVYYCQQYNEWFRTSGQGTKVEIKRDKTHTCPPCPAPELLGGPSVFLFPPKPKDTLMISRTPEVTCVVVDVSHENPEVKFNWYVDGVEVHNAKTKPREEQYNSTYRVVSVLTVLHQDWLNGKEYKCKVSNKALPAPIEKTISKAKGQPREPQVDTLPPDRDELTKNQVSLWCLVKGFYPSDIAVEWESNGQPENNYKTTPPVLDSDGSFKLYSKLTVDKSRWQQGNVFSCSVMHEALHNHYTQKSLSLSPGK
ScFv-Fc fusion protein, chain A with T366W+F405K, sequence (chain): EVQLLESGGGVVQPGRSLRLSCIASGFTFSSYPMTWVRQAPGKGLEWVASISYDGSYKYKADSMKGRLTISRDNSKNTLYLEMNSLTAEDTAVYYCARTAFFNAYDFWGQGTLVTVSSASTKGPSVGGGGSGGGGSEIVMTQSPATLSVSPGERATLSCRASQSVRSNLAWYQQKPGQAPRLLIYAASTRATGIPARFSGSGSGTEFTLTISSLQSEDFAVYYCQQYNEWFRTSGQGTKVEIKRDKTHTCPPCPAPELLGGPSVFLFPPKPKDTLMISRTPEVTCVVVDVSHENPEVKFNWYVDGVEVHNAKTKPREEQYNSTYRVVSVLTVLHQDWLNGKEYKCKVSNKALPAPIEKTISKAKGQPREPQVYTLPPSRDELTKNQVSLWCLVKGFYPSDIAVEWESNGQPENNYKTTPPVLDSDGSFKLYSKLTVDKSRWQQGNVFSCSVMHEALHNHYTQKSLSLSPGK
ScFv-Fc fusion protein, chain A with T366W+K409A+K392D, sequence (chain): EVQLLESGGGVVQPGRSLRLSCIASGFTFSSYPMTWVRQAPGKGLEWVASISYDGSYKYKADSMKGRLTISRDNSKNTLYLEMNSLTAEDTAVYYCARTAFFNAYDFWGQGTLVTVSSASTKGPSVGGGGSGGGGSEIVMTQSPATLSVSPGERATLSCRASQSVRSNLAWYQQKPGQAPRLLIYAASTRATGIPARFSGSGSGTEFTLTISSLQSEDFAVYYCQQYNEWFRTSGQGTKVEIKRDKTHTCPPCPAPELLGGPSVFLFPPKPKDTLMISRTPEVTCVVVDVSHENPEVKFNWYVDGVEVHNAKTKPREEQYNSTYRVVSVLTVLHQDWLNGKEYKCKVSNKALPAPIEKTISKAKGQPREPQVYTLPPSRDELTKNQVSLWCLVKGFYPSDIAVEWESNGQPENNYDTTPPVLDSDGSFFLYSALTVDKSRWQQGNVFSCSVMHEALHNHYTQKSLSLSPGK

Substance: Human IgG1-Fc, chain B with D356C+T366S+L368A+Y407V (from UniProt P0DOX5 223-449)
Fc homodimer (%) [1]: 23%
Fc homodimer (%) [2]: 20%

Substance: Human IgG1-Fc, chain B with D356C+T366S+L368A+Y407V+K360E+Q347E (from UniProt P0DOX5 223-449)
Fc homodimer (%) [7]: 24%

Substance: Human IgG1-Fc, chain B with D356C+T366S+L368A+Y407V+Q347R (from UniProt P0DOX5 223-449)
Fc homodimer (%) [8]: 14%

Substance: ScFv-Fc fusion protein, chain A with T366W+F405K
ScFv-Fc homodimer (%) [10]: 5%

Substance: ScFv-Fc fusion protein, chain A with T366W+F405K+D399S
ScFv-Fc homodimer (%) [11]: 6%

Substance: ScFv-Fc fusion protein, chain A with T366W+K409A+K392D
ScFv-Fc homodimer (%) [14]: 7%

Substance: ScFv-Fc fusion protein, chain A with T366W+K409A+Y349D
ScFv-Fc homodimer (%) [15]: 14%

Substance: ScFv-Fc fusion protein, chain A with Y349C+T366W+F405K+K360E+Q347E
ScFv-Fc homodimer (%) [20]: 14%

Substance: ScFv-Fc fusion protein, chain A with Y349C+T366W+F405K+Q347R
ScFv-Fc homodimer (%) [21]: 14%

Substance: ScFv-Fc fusion protein, chain A with Y349C+T366W+K409A+K360E+Q347E
ScFv-Fc homodimer (%) [25]: 24%

Substance: ScFv-Fc fusion protein, chain A with Y349C+T366W+K409A+Q347R
ScFv-Fc homodimer (%) [26]: 21%

Substance: ScFv-Fc fusion protein, chain A with Y349C+T366W+K409E
ScFv-Fc homodimer (%) [27]: 25%

Substance: VhH-Fc fusion protein, chain B with D356C+T366S+L368A+Y407V
VhH-Fc homodimer (%) [29]: 27%

Substance: VhH-Fc fusion protein, chain B with T366S+L368A+Y407V+D399S+F405K
VhH-Fc homodimer (%) [30]: 13%

Substance: VhH-Fc fusion protein, chain B with T366S+L368A+Y407V+K409A+E357A
VhH-Fc homodimer (%) [31]: 7%

Substance: VhH-Fc fusion protein, chain B with T366S+L368A+Y407V+K409A+K392D
VhH-Fc homodimer (%) [32]: 13%

Substance: VhH-Fc fusion protein, chain B with T366S+L368G+Y407A+K409A
VhH-Fc homodimer (%) [33]: 7%

The next lines start with the values.

Fc homodimer (%) [3]: 10%
Fc homodimer (%) [4]: 18% and 13%
Substance: Human IgG1-Fc, chain B with D356C+T366S+L368A+Y407V+F405K (from UniProt P0DOX5 223-449)

Fc homodimer (%) [5]: 8%
Substance: Human IgG1-Fc, chain B with D356C+T366S+L368A+Y407V+F405K+K360E+Q347E (from UniProt P0DOX5 223-449)

Fc homodimer (%) [6]: 12%
Substance: Human IgG1-Fc, chain B with D356C+T366S+L368A+Y407V+F405K+Q347R (from UniProt P0DOX5 223-449)

ScFv-Fc homodimer (%) [9]: 29% and 24%
Substance: ScFv-Fc fusion protein (anti-Her2 single chain antibody-Fc), chain A with Y349C+T366W

ScFv-Fc homodimer (%) [12]: 9%
Substance: ScFv-Fc fusion protein, chain A with T366W+F405K+Y349D+S354D

ScFv-Fc homodimer (%) [13]: 15%
Substance: ScFv-Fc fusion protein, chain A with T366W+K409A

ScFv-Fc homodimer (%) [16]: 10%
Substance: ScFv-Fc fusion protein, chain A with T366W+K409A+Y349D+S354D

ScFv-Fc homodimer (%) [17]: 9%
ScFv-Fc homodimer (%) [18]: 17%
ScFv-Fc homodimer (%) [19]: 10%
Substance: ScFv-Fc fusion protein, chain A with Y349C+T366W+F405K

ScFv-Fc homodimer (%) [22]: 21%
ScFv-Fc homodimer (%) [23]: 13%
ScFv-Fc homodimer (%) [24]: 10%
Substance: ScFv-Fc fusion protein, chain A with Y349C+T366W+K409A

VhH-Fc homodimer (%) [28]: 19%
Substance: VhH-Fc fusion protein (camel single domain antibody variable region-Fc), chain B with D356C+T366S+L368A+Y407V+F405K
